Measured values reported in patent publication US20120308566A1.
One block for each binder: values may come before it.

What was measured:
[1] = biological target: Human IL-17RA full-length expressed on the surface of cells (human) (UniProt Q96F46); experiment: cell-based or functional assay
chimera L = experiment: Bio-Plex titration on His-captured chimera; bold cell = binding criterion not met

- % inhibition of IL-6 production, IL-17A/HFF bioassay, supernatant 19 (incl. AMH23), 1:4 dilution [1]: 79%
- % inhibition of IL-6 production, IL-17A/HFF bioassay, supernatant 19 (incl. AMH23), 1:32 [1]: 72%
- % inhibition of IL-6 production, repeat IL-17A/HFF bioassay, supernatant 19 (incl. AMH23), 1:4 [1]: 86%
- % inhibition of IL-6 production, repeat IL-17A/HFF bioassay, supernatant 19 (incl. AMH23), 1:32 [1]: 76%
- % inhibition of IL-6 production, repeat IL-17A/HFF bioassay, supernatant 19 (incl. AMH23), 1:128 [1]: 67%
- % inhibition of IL-6 production, repeat IL-17A/HFF bioassay, supernatant 19 (incl. AMH23), 1:512 [1]: 50%
B1: AMH23/AML23 (antibody, part only; not given: light variable domain, version unclear, V domains shown, part only)
VH: QVQLQESGPGLVKPSETLSLTCTVSGGSISSYYWSWIRQPAGKRLEWIGRIYPSGRTNYNPSLKSRVTMSVDTSKNQFSLKLSSVTAADTAVYYCAREAYELQLGLYYYYGMDVWGQGTPVTVSS

- EC50 as fitted, in a bold cell (binding criterion not met) (chimera L): 6 pM
B2: AMH26/AML26 (antibody, IgG2, V domains shown)
VH: QVQLVESGGGLVKPGGSLRLSCAASGFTFSDYYMSWIRQAPGKGLEWVSYISSSGSTIYYADSVKGRFTISRDNAKNSLYLQMNSLRAEDTAVYYCARDRTYYFGSGSYEGMDVWGQGTTVTVSS
VL: EILMTQSPATLSVSPGERATLSCRASQSVYSNLAWYQQKPGQAPRLLISGASTRATGIPARFSGSGSGTEFTLTISSLQSEDFAVYYCQQYYNWPWTFGQGTKVEIK
